Laboratory results: patent US20250361295A1 (ANTENGENE BIOLOGICS, published 2025)

B1: ch8-B3-F6-H8 (antibody, V domains shown)
VH: EVKVIESGGGLVQPGGSLKLSCAASGFDFSRYWMSWVRQAPGKGLEWIGEINPDSSAINYTPSLKDKFIISRDNAKNTLYLQMSKVRSEDTALYYCATSMTMDYWGQGTSVTVSS
VL: DIVMTQSPSSMYASLGERVTITCKASQDIKSYLSWYQQKPWKSPKTLIYYATSLADGVPSRFSGSGSGQDYSLTISSLESDDTATYYCLQHGESPYTFGGGTKLEK
B2: 27-F11-E10-G10 (antibody, V domains shown)
VH: EVQLVESGGGLVQPGGSRKLSCAASGFTFSSFGMHWVRQAPEKGLEWVAYISSGSSTIYYADTVKGRFSISRDNPKNTLFLQMTSLRSEDTAMFYCARSTGTGAMDYWGQGTSVTVSS
VL: DIQMTQTTSSLSASLGDRVTISCRASQDISNYLNWYQQKPDGTVKLLIYYTSRLHSGVPSRFSGSGSGTDYSLTISNLEQEDIATYFCQQGNTLPWTFGGGTKLELK
notes: mouse monoclonal hybridoma antibody
B3: ch43-D12-F3-G11 (antibody, V domains shown)
VH: EVQVVESGPGLVAPSQSLSITCTVSGFSLTSYGVSWVRQPPGKGLEWLGVIWADGSTNYHSALLSRLSISKDNSKSQVFLKLNSLQTDDTATYYCAKGHWDGFAYWGQGTLVAVSA
VL: DIVLTQSPAIMSTSPGEKVTLTCSASSSITSSYLYWYQQKPGSSPKLWIYSTSNLASGVPARFSGSGSGTSYYLTISSMEAEDAASYFCHQWSSYPPTFGGGTKLELK
B4: ch48-E11-H7-B5 (antibody, V domains shown)
VH: EVQLVESGGGLVKPGGSLKLSCAASGFTFSSYAMSWVRQTPEKRLEWVASITIGDDTYYPDSVKGRFTISRDHAKNILYLQVSSLRSEDTAMYSCARGVNSYGSSYRYFDVWGAGTTVTVSS
VL: DIVMTQSHKFMSTSVGDRVSITCKASQDVSTAVAWYQQKPGQSPKLLIYWASTRHTGVPDRFTGSGSGTDYTLTISSVQAEDLALYYCQQHYSIPFTFGAGTKLEK
B5: 8-B3-F6-H8 (antibody, V domains shown)
VH: B1 VH
VL: B1 VL
notes: as for B2
B6: 43-D12-F3-G11 (antibody, V domains shown)
VH: B3 VH
VL: B3 VL
notes: as for B2

Tests used:
human LILRB4 [1] = target: T1, human LILRB4 (human, UniProt Q8NHJ6 22-448); test: cell-based or functional assay
human LILRB4 [2] = target: T1, human LILRB4; test: cell-based or functional assay; remark: listed apart in the source
human LILRB4 [3] = target: T1, human LILRB4; test: cell-based or functional assay; remark: listed apart in the source
human LILRB4 [4] = target: T1, human LILRB4; test: FACS, 293F-hLILRB4 cells
Method: (§1) The protocol for FACS analysis is described as follows: [0438] (a) Cells were harvested by centrifugation at 300 g for 3 mins. […] (b) The cells were washed for 2 times with FACS buffer by centrifuging at 300 g for 3 mins and the supernatant was discarded. [0440] (c) Cell were resuspended and seeded into assay plate (2×10⁵ cells/well) in 50 μl FACS buffer. […] Cells were incubated with antibodies at 4° C. for 1 hour. […] (d) Step (b) was repeated and the cells were resuspended with 100 μl diluted 2nd antibody, incubated at 4° C. for 1 hour in the dark. [0442] (e) Step (b) was repeated and the cells were resuspended with 100 μl FACS buffer. The cells were kept in dark for FACS analysis.

human LILRB5 = target: T2, human LILRB5 (human, UniProt O75023 24-590); test: FACS, 293F-hLILRB5 cells
T2 construct: whole, on cells; also called hLILRB5
T2 sequence (O75023 24-590): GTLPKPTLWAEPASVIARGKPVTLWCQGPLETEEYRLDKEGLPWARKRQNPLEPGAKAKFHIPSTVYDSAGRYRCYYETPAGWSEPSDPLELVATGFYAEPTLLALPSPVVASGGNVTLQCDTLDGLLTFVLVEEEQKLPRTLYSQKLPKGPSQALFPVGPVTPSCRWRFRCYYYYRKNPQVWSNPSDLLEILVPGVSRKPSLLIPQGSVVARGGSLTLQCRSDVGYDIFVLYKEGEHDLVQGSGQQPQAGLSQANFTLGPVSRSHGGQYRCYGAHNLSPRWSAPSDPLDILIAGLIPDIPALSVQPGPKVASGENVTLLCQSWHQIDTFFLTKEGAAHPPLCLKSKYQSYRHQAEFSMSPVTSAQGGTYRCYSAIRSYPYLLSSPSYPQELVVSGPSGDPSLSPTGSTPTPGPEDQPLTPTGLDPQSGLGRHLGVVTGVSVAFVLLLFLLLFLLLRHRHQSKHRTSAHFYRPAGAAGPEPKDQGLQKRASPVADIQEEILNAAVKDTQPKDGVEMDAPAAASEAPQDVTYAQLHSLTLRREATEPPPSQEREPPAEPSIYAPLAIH

human LILRB4 [5] = target: T1, human LILRB4; test: FACS, 293F-hLILRB4 cells; remark: listed apart in the source
Method: The subcloning plates were screened by protein or cell-based ELISA, and the subclones with good binding ability were expanded to 24-wells for confirmation tests. The specificity and cross-reactivity of these subclones were confirmed with FACS analysis. […] Fluorescent dye-conjugated secondary antibody was used to detect the binding of the primary antibody with the cells. Median fluorescence intensity (MFI) was measured by FACS analysis. […]

human LILRB2 = target: T3, human LILRB2 (human, UniProt Q8N423 22-597); test: FACS, 293F-hLILRB2 cells
T3 construct: whole, on cells; also called hLILRB2
T3 sequence (Q8N423 22-597): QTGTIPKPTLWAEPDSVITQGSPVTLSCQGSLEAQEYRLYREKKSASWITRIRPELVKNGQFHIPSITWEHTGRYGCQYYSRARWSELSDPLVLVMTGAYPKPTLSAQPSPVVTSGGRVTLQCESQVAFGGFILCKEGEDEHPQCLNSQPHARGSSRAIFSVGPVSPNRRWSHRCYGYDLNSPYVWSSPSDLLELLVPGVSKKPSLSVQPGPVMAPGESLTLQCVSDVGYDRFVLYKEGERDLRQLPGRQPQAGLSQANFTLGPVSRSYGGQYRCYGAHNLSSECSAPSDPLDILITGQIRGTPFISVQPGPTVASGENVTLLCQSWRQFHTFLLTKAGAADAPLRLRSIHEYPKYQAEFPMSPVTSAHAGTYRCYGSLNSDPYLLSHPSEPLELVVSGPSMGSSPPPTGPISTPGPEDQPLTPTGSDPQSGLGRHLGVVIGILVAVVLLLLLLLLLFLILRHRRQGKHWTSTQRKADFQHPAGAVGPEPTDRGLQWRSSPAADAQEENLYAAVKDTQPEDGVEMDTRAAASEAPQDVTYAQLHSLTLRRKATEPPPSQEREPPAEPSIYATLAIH

human LILRA3 = target: T4, human LILRA3 (human, UniProt Q8N6C8 24-439); test: FACS, 293F-hLILRA3 cells
T4 construct: whole, on cells; also called hLILRA3
T4 sequence (Q8N6C8 24-439): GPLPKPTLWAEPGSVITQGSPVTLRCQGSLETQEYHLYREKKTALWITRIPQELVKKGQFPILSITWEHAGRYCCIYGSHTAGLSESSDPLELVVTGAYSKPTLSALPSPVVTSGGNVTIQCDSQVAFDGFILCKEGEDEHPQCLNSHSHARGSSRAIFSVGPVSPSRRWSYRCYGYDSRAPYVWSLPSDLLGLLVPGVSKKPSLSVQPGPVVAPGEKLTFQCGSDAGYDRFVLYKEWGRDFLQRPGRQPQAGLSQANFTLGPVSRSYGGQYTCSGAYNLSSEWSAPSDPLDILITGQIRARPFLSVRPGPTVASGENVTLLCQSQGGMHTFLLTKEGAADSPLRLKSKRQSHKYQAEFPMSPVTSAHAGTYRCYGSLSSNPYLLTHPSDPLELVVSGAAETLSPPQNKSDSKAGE

human LILRA1 = target: T5, human LILRA1 (human, UniProt O75019 17-489); test: FACS, 293F-hLILRA1 cells
T5 construct: whole, on cells; also called hLILRA1
T5 sequence (O75019 17-489): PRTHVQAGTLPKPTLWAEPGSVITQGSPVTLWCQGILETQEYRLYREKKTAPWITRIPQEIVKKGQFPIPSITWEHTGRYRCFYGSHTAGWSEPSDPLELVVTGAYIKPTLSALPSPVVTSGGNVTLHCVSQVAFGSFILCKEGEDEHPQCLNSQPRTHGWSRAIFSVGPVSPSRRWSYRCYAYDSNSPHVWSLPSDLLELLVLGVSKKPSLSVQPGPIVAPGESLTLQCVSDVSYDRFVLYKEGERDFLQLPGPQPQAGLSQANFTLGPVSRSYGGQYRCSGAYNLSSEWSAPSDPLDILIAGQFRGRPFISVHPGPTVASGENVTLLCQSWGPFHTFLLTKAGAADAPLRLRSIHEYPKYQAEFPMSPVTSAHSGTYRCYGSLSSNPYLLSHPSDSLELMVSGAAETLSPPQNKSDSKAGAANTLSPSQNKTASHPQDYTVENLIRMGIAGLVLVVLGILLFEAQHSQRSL

human LILRB3 [6] = target: T6, human LILRB3 (human, UniProt O75022 24-631); test: FACS, 293F-hLILRB3 cells
T6 construct: whole, on cells; also called hLILRB3
T6 sequence (O75022 24-631): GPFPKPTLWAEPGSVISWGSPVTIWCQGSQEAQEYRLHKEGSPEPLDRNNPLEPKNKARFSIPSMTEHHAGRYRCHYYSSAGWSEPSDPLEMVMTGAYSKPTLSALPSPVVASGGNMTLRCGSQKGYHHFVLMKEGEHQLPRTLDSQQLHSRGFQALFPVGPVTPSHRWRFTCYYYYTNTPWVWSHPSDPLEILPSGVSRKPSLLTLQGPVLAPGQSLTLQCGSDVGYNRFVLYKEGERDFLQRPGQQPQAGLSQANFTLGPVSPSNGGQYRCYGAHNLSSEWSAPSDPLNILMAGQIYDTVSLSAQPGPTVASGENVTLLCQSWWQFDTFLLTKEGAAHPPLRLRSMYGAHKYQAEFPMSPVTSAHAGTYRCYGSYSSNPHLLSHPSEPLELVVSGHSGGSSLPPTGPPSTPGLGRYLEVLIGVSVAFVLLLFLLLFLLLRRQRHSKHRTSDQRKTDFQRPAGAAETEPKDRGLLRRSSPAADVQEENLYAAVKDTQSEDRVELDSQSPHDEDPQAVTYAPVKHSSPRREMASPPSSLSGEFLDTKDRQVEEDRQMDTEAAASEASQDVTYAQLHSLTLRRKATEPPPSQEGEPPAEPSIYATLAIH

human LILRA2 = target: T7, human LILRA2 (human, UniProt Q8N149 24-483); test: FACS, 293F-hLILRA2 cells
T7 construct: whole, on cells; also called hLILRA2
T7 sequence (Q8N149 24-483): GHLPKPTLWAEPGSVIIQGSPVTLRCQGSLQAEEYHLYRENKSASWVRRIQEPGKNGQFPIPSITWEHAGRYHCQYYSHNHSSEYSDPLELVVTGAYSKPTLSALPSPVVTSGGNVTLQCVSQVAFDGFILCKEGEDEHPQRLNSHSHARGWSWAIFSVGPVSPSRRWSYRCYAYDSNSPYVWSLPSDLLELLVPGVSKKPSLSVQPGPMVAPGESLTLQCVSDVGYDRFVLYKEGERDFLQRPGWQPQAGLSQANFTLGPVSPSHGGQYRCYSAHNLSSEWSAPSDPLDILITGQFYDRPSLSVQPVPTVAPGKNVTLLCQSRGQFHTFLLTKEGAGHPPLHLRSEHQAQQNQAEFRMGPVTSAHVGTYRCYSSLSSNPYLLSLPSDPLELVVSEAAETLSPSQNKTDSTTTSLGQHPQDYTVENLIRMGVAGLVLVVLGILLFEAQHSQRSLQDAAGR

human LILRB1 = target: T8, human LILRB1 (human, UniProt Q8NHL6 24-650); test: FACS, 293F-hLILRB1 cells
T8 construct: whole, on cells; also called hLILRB1
T8 sequence (Q8NHL6 24-650): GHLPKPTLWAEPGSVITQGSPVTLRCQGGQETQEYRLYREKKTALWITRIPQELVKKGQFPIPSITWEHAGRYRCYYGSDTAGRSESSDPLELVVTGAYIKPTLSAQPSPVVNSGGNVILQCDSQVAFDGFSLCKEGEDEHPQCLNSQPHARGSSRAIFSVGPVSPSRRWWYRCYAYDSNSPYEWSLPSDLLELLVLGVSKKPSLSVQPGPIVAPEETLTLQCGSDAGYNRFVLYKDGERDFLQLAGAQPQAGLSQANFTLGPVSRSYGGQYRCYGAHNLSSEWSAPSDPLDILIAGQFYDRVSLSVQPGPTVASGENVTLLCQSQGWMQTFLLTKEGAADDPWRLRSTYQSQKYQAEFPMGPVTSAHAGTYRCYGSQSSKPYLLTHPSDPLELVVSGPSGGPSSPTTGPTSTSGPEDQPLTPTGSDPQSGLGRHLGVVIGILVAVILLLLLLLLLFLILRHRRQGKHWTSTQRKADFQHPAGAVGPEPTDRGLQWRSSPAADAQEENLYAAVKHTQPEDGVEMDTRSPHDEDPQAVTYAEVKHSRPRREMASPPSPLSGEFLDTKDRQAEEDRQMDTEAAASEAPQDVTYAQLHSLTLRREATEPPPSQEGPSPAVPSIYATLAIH

human LILRA4 = target: T9, human LILRA4 (human, UniProt P59901 24-499); test: FACS, 293F-hLILRA4 cells
T9 construct: whole, on cells; also called hLILRA4
T9 sequence (P59901 24-499): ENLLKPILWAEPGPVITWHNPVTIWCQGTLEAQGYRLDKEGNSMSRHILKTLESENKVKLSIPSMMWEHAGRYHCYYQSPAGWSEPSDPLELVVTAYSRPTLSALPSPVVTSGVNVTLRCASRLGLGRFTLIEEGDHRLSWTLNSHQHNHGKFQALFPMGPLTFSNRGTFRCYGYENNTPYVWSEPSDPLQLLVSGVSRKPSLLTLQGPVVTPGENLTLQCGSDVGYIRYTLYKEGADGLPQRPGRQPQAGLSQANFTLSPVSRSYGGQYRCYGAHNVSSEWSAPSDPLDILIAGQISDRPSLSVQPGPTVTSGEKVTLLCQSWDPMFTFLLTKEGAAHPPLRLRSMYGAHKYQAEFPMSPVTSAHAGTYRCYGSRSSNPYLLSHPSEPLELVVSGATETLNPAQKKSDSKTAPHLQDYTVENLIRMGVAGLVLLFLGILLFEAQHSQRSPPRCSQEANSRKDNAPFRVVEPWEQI

human LILRB3 [7] = target: T6, human LILRB3; test: FACS, 293F-hLILRB3 cells; remark: listed apart in the source
Method: as §1

human LILRA5 = target: T10, human LILRA5 (human, UniProt A6NI73 42-299); test: FACS, 293F-hLILRA5 cells
T10 construct: whole, on cells; also called hLILRA5
T10 sequence (A6NI73 42-299): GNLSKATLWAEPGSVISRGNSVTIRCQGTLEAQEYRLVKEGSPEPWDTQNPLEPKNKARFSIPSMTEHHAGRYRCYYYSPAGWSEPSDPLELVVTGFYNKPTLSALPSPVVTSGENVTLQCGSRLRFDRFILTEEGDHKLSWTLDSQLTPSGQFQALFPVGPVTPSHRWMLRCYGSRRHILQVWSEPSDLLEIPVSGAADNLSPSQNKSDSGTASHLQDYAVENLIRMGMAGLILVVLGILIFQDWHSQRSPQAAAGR

Binder	FcγR stimulation (TNF-α, pg/mL) (human LILRB4 [1]) [pg/mL]	Fold change (Compared to isotype) (human LILRB4 [1]) [fold]	ADCP (%) at 133.3 nM, macrophages and MV-4-11 cells (human LILRB4 [2]) [%]	Max cell cytotoxicity (%), ADCC on THP-1 cells (human LILRB4 [3]) [%]	EC50 (human LILRB4 [4]) [nM]	Max MFI (human LILRB4 [4]) [MFI]	MFI (human LILRB5) [MFI]	MFI (human LILRB4 [5]) [MFI]	MFI (human LILRB2) [MFI]	MFI (human LILRA3) [MFI]	MFI (human LILRA1) [MFI]	MFI (human LILRB3 [6]) [MFI]	MFI (human LILRA2) [MFI]	MFI (human LILRB1) [MFI]	MFI (human LILRA4) [MFI]	EC50 (nM), ADCC on THP-1 cells (human LILRB4 [3]) [nM]	binding result (human LILRB3 [7])	MFI (human LILRA5) [MFI]
B1	391	12.4	4.59	7.1	2.05	48500	–	–	–	–	–	–	–	–	–	–	–	–
B2	–	–	–	–	–	–	19.5	512	27.7	19.1	22.1	24.9	17.3	21.1	19.7	–	–	–
B3	215	6.81	18.2	2.39	2.91	48000	–	–	–	–	–	–	–	–	–	4.14	–	–
B4	1310	41.4	18	–	4.05	53700	–	–	–	–	–	–	–	–	–	–	no binding (tested: up to 66.67 nM)	–
B5	–	–	–	–	–	–	16.8	1060	29.5	20	22.2	–	19.6	19.4	19.5	–	–	24.5
B6	–	–	–	–	–	–	17.9	727	30.4	20.2	22.2	–	20	22.6	21.2	–	–	172
